Sequences and labels used below:
B1: hz20-2 (antibody, IgG1, V domains shown)
VH: QVQLVQSGAEVKKPGASVKVSCKASGYTFTNYGISWVRQAPGQGLEWMGEIYPRSGNTYHNEKFKDRVTMTTDTSTSTAYMELRSLRSDDTAVYYCARSMITTRYWYFDVWGQGTLVTVSS
VL: DIQMTQSPSSLSASVGDRVTITCRASESVDTYGNSFMHWYQQKPGKAPKLLIYLASNLESGVPSRFSGSGSGTDFTLTISSLQPEDFATYYCQQNNEDPLTFGQGTKVEIK
notes: also called clone 20-based hz20-2 antibody
B2: hz20-6 (antibody, V domains shown)
VH: B1 VH with V20L, S25T, M48I, M70L, T72A, T74K, T76S, L83F, Y95F
VL: B1 VL
notes: light constant region not tied to this antibody
B3: hz13-5 (antibody, IgG1, V domains shown)
VH: EVLLVQSGAEVKKPGASVKLSCTSSDFNIKDHFIHWVRQAPGKGLEWMGRIDPEDDETKYAPKFQDRVTMTADTSTDTAYMELSSLRSEDTAVFYCAGYGNYEGAMDYWGQGTLVTVSS
VL: DIQMTQSPSSLSASVGDRVTITCRASENVNNYGIGFMNWFQQKPGKAPKLLIYAASRRGSGVPSRFSGSGSGTDFTLTISSLQPEDFATYFCQQSKEVPYTFGQGTKVEIK
notes: also called clone 13-based hz13-5 antibody; parent hz13-5
B4: hz13-1 (antibody, V domains shown)
VH: B3 VH with L3Q, L20V, F94Y
VL: B3 VL with F40Y, F91Y
notes: as for B2
B5: hz13-8 (antibody, V domains shown)
VH: B3 VH with M48I, M70I, M81L
VL: B3 VL
notes: as for B2
B6: hz13-4 (antibody, V domains shown)
VH: B3 VH
VL: B3 VL with F40Y, F91Y
notes: as for B2
B7: hz13-6 (antibody, V domains shown)
VH: B3 VH
VL: B3 VL with Q3V, I21L, L82M, V108L
notes: as for B2
B8: hz13-7 (antibody, V domains shown)
VH: B3 VH with M48I, M70I, M81L
VL: B3 VL with F40Y, F91Y
notes: as for B2
B9: hz13-3 (antibody, V domains shown)
VH: B3 VH with L3Q, L20V, F94Y
VL: B3 VL with Q3V, I21L, L82M, V108L
notes: as for B2
B10: hz13-9 (antibody, V domains shown)
VH: B3 VH with M48I, M70I, M81L
VL: B3 VL with Q3V, I21L, L82M, V108L
notes: as for B2
B11: hz13-2 (antibody, V domains shown)
VH: B3 VH with L3Q, L20V, F94Y
VL: B3 VL
notes: as for B2
B12: hz13-5 D31E (antibody, V domains shown)
VH: B3 VH with D31E
VL: DIQMTQSPSSLSASVGDRVTITCRASENVNNYGIGFMNWFQQKPGKAPKLLIYAASRRGSGVPSRFSGSGSGTDFTLTISSLQPEDFATYFCQQSKEVPYTFGQGTKVEIKR
notes: IgG1.3f; also called clone 13-based hz13-5 D31E

Where a chain is given by its changes, count along the chain named. In names and notes the source's numbering stands.

In the first experiment the target is extracellular matrix (ECM) proteins. Briefly: ECM plate ELISA (Matrigel), 1 uM antibody, A450 over wells without sample. Background: An ELISA detects its analyte on a solid surface through an enzyme-linked reagent.
Molecule B1 yielded an ECM Score (1 µM) of 6.

B2 returned an ECM Score (1 µM) of 16.

B3 gave an ECM Score (1 µM) of 1.

B4: the ECM Score (1 µM) amounted to 1.

B5 displayed an ECM Score (1 µM) of 2.

B6 gave an ECM Score (1 µM) of 1.

In the case of B7, the ECM Score (1 µM) was 1.

In turn, B8 had an ECM Score (1 µM) of 1.

B9 registered an ECM Score (1 µM) of 1.

As to B10, the ECM Score (1 µM) is 2.

The molecule B11 registered an ECM Score (1 µM) of 1.

The target in a further experiment is T1, recombinant human PAD4 (human, UniProt Q9UM07 1-663). Briefly: cell-based or functional assay.
T1 sequence (Q9UM07 whole entry): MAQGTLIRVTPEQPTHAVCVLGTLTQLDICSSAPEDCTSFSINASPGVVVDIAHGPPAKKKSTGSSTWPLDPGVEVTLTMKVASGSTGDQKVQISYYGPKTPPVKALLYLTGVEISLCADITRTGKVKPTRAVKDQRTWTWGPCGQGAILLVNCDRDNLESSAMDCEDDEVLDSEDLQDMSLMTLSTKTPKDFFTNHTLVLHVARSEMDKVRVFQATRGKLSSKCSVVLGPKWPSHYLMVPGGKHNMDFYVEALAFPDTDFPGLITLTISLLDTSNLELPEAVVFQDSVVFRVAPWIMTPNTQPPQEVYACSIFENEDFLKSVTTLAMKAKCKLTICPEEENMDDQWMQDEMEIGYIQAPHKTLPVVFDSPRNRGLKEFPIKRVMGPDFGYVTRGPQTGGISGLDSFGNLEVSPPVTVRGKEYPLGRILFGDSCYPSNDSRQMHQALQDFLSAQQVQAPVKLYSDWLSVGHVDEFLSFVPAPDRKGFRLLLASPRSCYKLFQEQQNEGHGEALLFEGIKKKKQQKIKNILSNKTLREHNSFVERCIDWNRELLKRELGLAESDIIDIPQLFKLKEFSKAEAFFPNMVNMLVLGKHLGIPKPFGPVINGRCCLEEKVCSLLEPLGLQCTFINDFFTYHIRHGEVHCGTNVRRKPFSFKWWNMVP
Turning to B1, the “IC50 (average), PAD4 citrullination of peptide …, RapidFire MS” value (“IC50 (average), PAD4 citrullination” for short) came to 73 nM.

For B2, the “IC50 (average), PAD4 citrullination” value came out at 64 nM.

Regarding B3, the “IC50 (average), PAD4 citrullination” value came to 48.2 nM.

Regarding B4, the “IC50 (average), PAD4 citrullination” value was 125 nM.

On to B5, for which the “IC50 (average), PAD4 citrullination” value worked out at 62.8 nM.

Take B6: the “IC50 (average), PAD4 citrullination” value came out at 115 nM.

With B7, the “IC50 (average), PAD4 citrullination” value amounted to 39.1 nM.

B8: the “IC50 (average), PAD4 citrullination” value was 170 nM.

Turning to B9, the “IC50 (average), PAD4 citrullination” value was 23.3 nM.

For the molecule B10, the “IC50 (average), PAD4 citrullination” value came out at 76 nM.

As to B11, the “IC50 (average), PAD4 citrullination” value was 96.4 nM.

The next experiment has as its target T1, recombinant human PAD4. Briefly: cell-based or functional assay. This is another data set of the same source.
Turning to B3, the “IC50, citrulline ELISA on peptide …, 13.5 nM rhPAD4” value was determined as 0.7 nM and the “IC50, citrulline ELISA on peptide …, 108 nM rhPAD4” value turned out to be 5.02 nM.

With B12, the “mean IC50, PAD4 driven H3 citrullination (ELISA), 13.5 nM PAD4, with 100 ug/ml purified IgG of NHV sera (n=6)” value worked out at 9 nM and the “mean IC50, PAD4 driven H3 citrullination (ELISA), 13.5 nM PAD4, with 100 ug/ml purified IgG of RA sera (n=21)” value came to 8.2 nM.

A further experiment addresses T1, recombinant human PAD4. Briefly: SPR 37 C, captured antibody, PAD4 analyte, 1 mM CaCl2. The procedure:
Their binding to human PAD4 was measured by Surface Plasmon Resonance (SPR). SPR measurements were performed with a Biacore® 8K, 8K+, or T200 instrument (Cytiva). The association rate constants, kₒₙ, dissociation rate constants, koff, and equilibrium dissociation constants, KD, of the antibodies with PAD4 were determined from these SPR measurements.
(§1) For SPR measurements, either an anti-human capture surface or Protein A surface (Cytiva catalog #29127555) was used. Anti-human capture surface was prepared by immobilizing anti-human capture antibody (Cytiva catalog #29234600) onto flow cells of a CM5 or CM4 biosensor following the manufacturer's amine coupling protocol (Cytiva catalog #BR-1006-33). SPR experiments were conducted at 37° C. using HBS-P (150 mM NaCl, 10 mM HEPES, pH 7.6, 0.05% Tween-20) (TEKNOVA catalog #H8032) with additional 150 mM NaCl and 1 mM or 2 mM CaCl₂) (see Table 2) or 2 mM EDTA (see Table 3) as running buffer. Antibodies were diluted to 1.5 μg/mL in the running buffer, and were captured across active biosensor flow cells at 10 μL/min for 15 to 30 seconds. […] The association and dissociation of the antibodies with PAD4 were measured. One 30 second injection followed by one 15 second injection of 10 mM glycine pH 1.5 was used to regenerate the Protein A capture surface between assay cycles. For anti-human capture surface, two 30 second injections of 3 M MgCl₂ was used for regeneration. SPR measurements for mAb20 and mAb 13 SPR were done in the presence of 2 mM CaCl₂). The remaining antibodies were tested in the presence of 1 mM CaCl₂).
(§2) Rate constants kₒₙ and koff were derived from reference flow cell- and 0 nM blank-subtracted sensorgrams, and were fit to a 1:1 binding model in Biacore® Insight Evaluation software version 3.0.12.15655. Deviations from 1:1 binding model were observed, which may be caused by increased dimerization of PAD4 at higher concentrations. The equilibrium dissociation constant, KD, was calculated as the ratio of rate constants koff/kₒₙ for each PAD4 antibody.
B1: the Kd (usually the concentration at which binding is half-saturated) amounted to 1.1 nM; the koff (as a rule, the first-order rate constant of dissociation) was determined as 0.00029 s⁻¹; the kon – broadly, the rate constant with which the complex forms – came out at 290000 M⁻¹ s⁻¹.

As to B2, the equilibrium dissociation constant (Kd) worked out at 0.6 nM, the off-rate constant (koff) was 0.00025 s⁻¹ and the kon was 390000 M⁻¹ s⁻¹.

With B3, the dissociation constant Kd worked out at 0.1 nM, the koff stood at 0.00012 s⁻¹ and the kon is 1.6e+06 M⁻¹ s⁻¹.

As to B12, the Kd is 0.147 nM, the koff stood at 0.000171 s⁻¹ and the kon stood at 1.32e+06 M⁻¹ s⁻¹.

Regarding B4, the Kd came to 0.2 nM, the koff was 0.00015 s⁻¹ and the kon was found to be 880000 M⁻¹ s⁻¹.

Take B5: the Kd was determined as 0.1 nM, the koff turned out to be 0.00014 s⁻¹ and the on-rate constant (kon) stood at 1.7e+06 M⁻¹ s⁻¹.

Regarding B6, the dissociation constant Kd is 0.1 nM, the koff is 0.00013 s⁻¹ and the kon came to 930000 M⁻¹ s⁻¹.

Consider B7, for which the Kd is 0.1 nM, the off-rate constant (koff) stood at 0.00012 s⁻¹ and the kon came out at 1.6e+06 M⁻¹ s⁻¹.

In the case of B8, the Kd stood at 0.1 nM, the koff is 0.00015 s⁻¹ and the kon came out at 1.2e+06 M⁻¹ s⁻¹.

For B9, the Kd amounted to 0.1 nM, the dissociation rate constant (koff) is 0.00013 s⁻¹ and the kon was 1.5e+06 M⁻¹ s⁻¹.

Take B10: the Kd turned out to be 0.1 nM, the koff stood at 0.00016 s⁻¹ and the kon worked out at 2e+06 M⁻¹ s⁻¹.

In the case of B11, the dissociation constant (Kd) is 0.1 nM, the dissociation rate constant (koff) came to 0.00012 s⁻¹ and the kon worked out at 1.7e+06 M⁻¹ s⁻¹.

The next experiment deals with T1, recombinant human PAD4. Briefly: cell-based or functional assay. The source holds these as a separate data set.
Regarding B12, the “IC50 run 1, citrulline ELISA on peptide …, 13.5 nM rhPAD4” value was determined as 0.34 nM; the “IC50 run 1, citrulline ELISA on peptide …, 27 nM rhPAD4” value was 1.77 nM; the “IC50 run 1, citrulline ELISA on peptide …, 54 nM rhPAD4” value was 3.13 nM; the “IC50 run 1, citrulline ELISA on peptide …, 108 nM rhPAD4” value turned out to be 6.03 nM. Besides, the “IC50 run 2, citrulline ELISA on peptide …, 13.5 nM rhPAD4” value was 0.73 nM; the “IC50 run 2, citrulline ELISA on peptide …, 27 nM rhPAD4” value is 1.26 nM; the “IC50 run 2, citrulline ELISA on peptide …, 54 nM rhPAD4” value was determined as 3.14 nM; the “IC50 run 2, citrulline ELISA on peptide …, 108 nM rhPAD4” value is 4.29 nM. Further, the “IC50 run 3, citrulline ELISA on peptide …, 13.5 nM rhPAD4” value is 0.37 nM; the “IC50 run 3, citrulline ELISA on peptide …, 27 nM rhPAD4” value is 0.89 nM; the “IC50 run 3, citrulline ELISA on peptide …, 54 nM rhPAD4” value came out at 2.68 nM; the “IC50 run 3, citrulline ELISA on peptide …, 108 nM rhPAD4” value is 4.65 nM.

The target of another experiment is T1, recombinant human PAD4. Briefly: SPR 37 C, captured antibody, PAD4 analyte, 2 mM EDTA. The procedure:
as §1
as §2, with “antibody. For those antibodies that were tested in multiple SPR experiments, the average value and standard deviation from two or three separate experiments are listed in Tables 2 and 3.” for “antibody.”
In the case of B1, the Kd was 1 nM, the koff was 0.00032 s⁻¹ and the kon was 310000 M⁻¹ s⁻¹.

As to B2, the Kd is 1.2 nM, the koff was found to be 0.00037 s⁻¹ and the kon worked out at 300000 M⁻¹ s⁻¹.

In the case of B3, the Kd is 0.1 nM, the koff amounted to 0.00021 s⁻¹ and the kon was determined as 2.1e+06 M⁻¹ s⁻¹.

For B12, the Kd came out at 0.306 nM, the koff came out at 0.000358 s⁻¹ and the on-rate constant (kon) came to 1.17e+06 M⁻¹ s⁻¹.

Turning to B4, the equilibrium dissociation constant (Kd) turned out to be 0.3 nM, the koff was 0.0004 s⁻¹ and the kon amounted to 1.3e+06 M⁻¹ s⁻¹.

As for B5, the Kd was determined as 0.1 nM, the koff stood at 0.00016 s⁻¹ and the kon came to 1.9e+06 M⁻¹ s⁻¹.

B6: the Kd was 0.2 nM, the koff is 0.00032 s⁻¹ and the kon is 1.4e+06 M⁻¹ s⁻¹.

On to B7, for which the Kd worked out at 0.1 nM, the dissociation rate constant (koff) turned out to be 0.00023 s⁻¹ and the kon came to 1.7e+06 M⁻¹ s⁻¹.

As for B8, the dissociation constant (Kd) is 0.1 nM, the koff worked out at 0.00025 s⁻¹ and the on-rate constant (kon) is 2e+06 M⁻¹ s⁻¹.

With B9, the Kd stood at 0.1 nM, the koff is 0.00021 s⁻¹ and the kon worked out at 1.9e+06 M⁻¹ s⁻¹.

For the molecule B10, the Kd was determined as 0.1 nM, the dissociation rate constant (koff) was 0.00019 s⁻¹ and the kon came to 2e+06 M⁻¹ s⁻¹.

Take B11: the Kd was 0.1 nM, the koff worked out at 0.00025 s⁻¹ and the kon stood at 2e+06 M⁻¹ s⁻¹.
